From the supplement of paper PMC10126150
± gives the standard deviation of the averaged measurements.

Test system: ATP
Experiment: switch fluorescence ratio, 500 uM ATP over buffer (Cy3 cluster intensity, sum of 5 cycles each) (fold (ratio)); higher = stronger signal-on switching upon ATP binding; sequences stand for … in TCGTCGGCAGCGTCAGATGTGTATAAGAGACAGTTTTTTTTTTTTTTTTTTTTTTTTT…TC
Details: aptamer strand: ATP DNA aptamer (quencher-CACCTGGGGGAGTATTGCGGAGGAAGG + anchor), 100 nM annealed; ATP concentration: 500 uM
Method in brief: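 Cy3-labelled switching-strand clusters on a modified Illumina MiSeq flow-cell were annealed to 100 nM quencher-labelled ATP aptamer, imaged in selection buffer, then imaged after 15 min with 500 uM ATP at 22 °C. Five buffer/ATP cycles ran, with NaOH stripping and re-annealing between them. The fluorescence ratio is summed target-cycle over summed buffer-cycle Cy3 intensity per cluster, averaged per switch-domain sequence. Clusters outside 100-1000 RFU were excluded.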
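Further: ATP exposure 15 min at 22 °C before imaging.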

Sequence	switch fluorescence ratio
AAAAAAAACC	1.4 ± 0.33
AAAAAAAATG	0.9991 ± 0.0042
AAAAAAATGG	1.01 ± 0.041
AAAAAAATTG	1 ± 0.017
AAAAAACGTA	1.08 ± 0.1
AAAAAAGAAG	1.01 ± 0.021
AAAAACGTAA	1.1 ± 0.061
AAAAAGATTG	1.06 ± 0.08
AAAAAGGGAA	0.986 ± 0.02
AAAAAGGGCC	1.009 ± 0.0089
AAAAATAGTG	1.036 ± 0.0098
AAAAATGGGA	0.962 ± 0.044
AAAAATGTCC	1.07 ± 0.03
AAAAATTATT	1.006 ± 0.0065
AAAAATTCTG	1.02 ± 0.014
AAAAATTTAG	0.994 ± 0.034
AAAACAAGGG	1.01 ± 0.012
AAAACACTGG	1.06 ± 0.053
AAAACCGAAA	1.11 ± 0.1
AAAACCGGGA	1.32 ± 0.52
AAAACCGTGT	1.05 ± 0.04
AAAACGGCTC	1.01 ± 0.0097
AAAACTTTTA	1.02 ± 0.04
AAAAGAAAAG	1.01 ± 0.051
AAAAGAACGC	1.05 ± 0.097

Sequence	switch fluorescence ratio
AAAAGAAGCA	0.948 ± 0.026
AAAAGAATAT	1 ± 0.019
AAAAGAATCG	0.996 ± 0.049
AAAAGAGAAG	1 ± 0.011
AAAAGAGGCA	1.02 ± 0.025
AAAAGAGGGT	1.03 ± 0.048
AAAAGAGGTT	0.9996 ± 0.0072
AAAAGAGTAT	1 ± 0.016
AAAAGATTTT	1.06 ± 0.14
AAAAGCGCGG	1.13 ± 0.074
AAAAGCTCCG	1.05 ± 0.033
AAAAGCTGGG	1.02 ± 0.051
AAAAGGGA	0.982 ± 0.046
AAAAGGGACG	1.05 ± 0.12
AAAAGGGCGG	1.01 ± 0.023
AAAAGGGCGT	0.9944 ± 0.0066
AAAAGGTTGG	0.997 ± 0.015
AAAAGGTTTG	1.022 ± 0.0081
AAAAGTAAAA	1.03 ± 0.061
AAAAGTCAAT	1.004 ± 0.0089
AAAAGTCAGT	0.988 ± 0.053
AAAAGTCGCT	1.03 ± 0.025
AAAAGTCGGC	1.04 ± 0.057
AAAAGTTCGT	0.983 ± 0.024
AAAAGTTGTA	1.01 ± 0.027

Sequence	switch fluorescence ratio
AAAATAAAG	0.947 ± 0.077
AAAATAAAGG	0.976 ± 0.023
AAAATATGCT	1 ± 0.049
AAAATCAAAT	1.02 ± 0.019
AAAATCAGCG	1 ± 0.051
AAAATCCTTG	1.01 ± 0.04
AAAATCGGTG	1.01 ± 0.068
AAAATCTAGT	1.014 ± 0.0081
AAAATCTGGT	1.03 ± 0.015
AAAATGAGCC	1.036 ± 0.00036
AAAATGATCG	1.006 ± 0.0074
AAAATGGATT	0.995 ± 0.055
AAAATGGTCA	1.0102 ± 0.00092
AAAATGTAGA	0.9919 ± 0.0016
AAAATTAAGA	0.982 ± 0.025
AAAATTAAGC	1.01 ± 0.051
AAAATTCAAG	0.983 ± 0.016
AAAATTCAGG	1.02 ± 0.011
AAAATTCTGC	1.06 ± 0.022
AAAATTGGGC	1.08 ± 0.02
AAAATTGGGG	1.02 ± 0.039
AAAATTTATG	1.01 ± 0.038
AAACAGATAA	1.04 ± 0.084
AAACAGCCGG	1.03 ± 0.0074
AAACAGCTCA	0.994 ± 0.027

Sequence	switch fluorescence ratio
AAACCAGCCC	1.21 ± 0.21
AAACCTGGCT	1.41 ± 0.034
AAACCTGGGT	1.03 ± 0.025
AAACGAAATT	1.03 ± 0.068
AAACGAAGGA	1.09 ± 0.069
AAACGCGTTG	0.9955 ± 0.0011
AAACGGCGGC	1.05 ± 0.041
AAACGGGGAC	1.07 ± 0.15
AAACGGGTGC	1.27 ± 0.29
AAACGGTATT	1.09 ± 0.083
AAACGGTTTC	0.993 ± 0.036
AAACGTTAGC	1.03 ± 0.052
AAACTAAGAA	1 ± 0.016
AAACTCGGAC	1.143 ± 0.0053
AAACTCTGCG	1.05 ± 0.026
AAACTGAATA	1.03 ± 0.016
AAACTGATGC	1.03 ± 0.052
AAACTGCTCC	1.517 ± 0.012
AAACTGTAAA	1.08 ± 0.045
AAACTGTATT	1.08 ± 0.019
AAACTTAATA	1.14 ± 0.16
AAACTTGCCC	1.09 ± 0.012
AAAGAAAAGG	0.989 ± 0.0065
AAAGAAGGTA	1 ± 0.026
AAAGAATAAA	1.022 ± 0.0089

Sequence	switch fluorescence ratio
AAAGACCGTG	1.02 ± 0.033
AAAGACGCGC	0.998 ± 0.038
AAAGAGGGTA	0.963 ± 0.055
AAAGAGGGTT	1.02 ± 0.019
AAAGATGAAT	1.04 ± 0.011
AAAGATGGGA	1.003 ± 0.0081
AAAGATGTCA	1.005 ± 0.0029
AAAGATTATT	1 ± 0.021
AAAGATTTCG	0.971 ± 0.027
AAAGCCACGC	1.11 ± 0.032
AAAGCGCGCT	1 ± 0.07
AAAGCGGGGC	1.02 ± 0.015
AAAGCTCTGT	0.992 ± 0.012
AAAGCTGGAG	1.03 ± 0.021
AAAGGAAGAA	1.013 ± 0.0073
AAAGGACGTG	0.9356 ± 0.0076
AAAGGAGGAG	0.991 ± 0.038
AAAGGCACCC	1.05 ± 0.019
AAAGGCCATG	1.02 ± 0.0045
AAAGGCCCGA	1.0084 ± 0.00039
AAAGGCCGT	1.016 ± 0.0077
AAAGGCCTTA	1.01 ± 0.045
AAAGGCGTAA	0.997 ± 0.013
AAAGGGAGGT	1.03 ± 0.041
AAAGGGCTGC	1.02 ± 0.13

Sequence	switch fluorescence ratio
AAAGGGGACA	1.02 ± 0.054
AAAGGGGCGG	1.02 ± 0.022
AAAGGGGGAC	1.04 ± 0.089
AAAGGGGGC	0.974 ± 0.067
AAAGGGGGCG	0.99 ± 0.017
AAAGGGGGTA	0.986 ± 0.015
AAAGGGGTGA	0.9698 ± 0.0057
AAAGGGTTCG	1 ± 0.034
AAAGGGTTTC	1 ± 0.038
AAAGGTAAGG	0.965 ± 0.016
AAAGGTCTGA	0.98 ± 0.0099
AAAGGTTCTG	0.992 ± 0.072
AAAGTAAAGT	1.01 ± 0.028
AAAGTACGGT	1.21 ± 0.024
AAAGTAGGAG	0.98 ± 0.048
AAAGTAGTTA	0.991 ± 0.015
AAAGTATCAG	1.002 ± 0.0081
AAAGTCTAC	1 ± 0.017
AAAGTGATTG	0.9723 ± 0.0028
AAAGTGGGAG	0.971 ± 0.012
AAAGTGGGG	0.973 ± 0.016
AAAGTGGGGA	1.03 ± 0.038
AAAGTTAATG	1.009 ± 0.0074
AAAGTTACTG	1.03 ± 0.077
AAAGTTCCTA	0.968 ± 0.033

Sequence	switch fluorescence ratio
AAAGTTGGCT	1.02 ± 0.046
AAAGTTTCCG	1 ± 0.0018
AAATAATTGC	1.01 ± 0.038
AAATACACGA	1.06 ± 0.029
AAATACGAGA	1.06 ± 0.024
AAATACGTTT	1 ± 0.016
AAATAGCTTT	0.9909 ± 0.0026
AAATAGTGGG	0.986 ± 0.026
AAATATAAGC	1.03 ± 0.044
AAATATATCT	0.987 ± 0.012
AAATATGTGG	0.989 ± 0.02
AAATATTTAT	0.971 ± 0.018
AAATCAATGT	1.02 ± 0.035
AAATCCCTAC	1.06 ± 0.028
AAATCGGGAA	1.34 ± 0.44
AAATCGGTGT	1 ± 0.037
AAATCGTGCA	1 ± 0.03
AAATCTGAAG	0.9798 ± 0.0027
AAATGAAGGT	1.01 ± 0.013
AAATGACGTT	0.9688 ± 0.0078
AAATGAGCGG	0.9824 ± 0.0046
AAATGAGTGG	0.9783 ± 0.006
AAATGCTATG	1.01 ± 0.031
AAATGCTCGG	0.993 ± 0.03
AAATGGAATG	0.983 ± 0.046

Sequence	switch fluorescence ratio
AAATGGATCA	1.024 ± 0.0029
AAATGGCACG	0.973 ± 0.024
AAATGGCATT	1 ± 0.033
AAATGGGGGG	0.974 ± 0.017
AAATGGTTTT	1 ± 0.024
AAATGTCTTG	0.955 ± 0.043
AAATGTGACG	1.03 ± 0.028
AAATGTTGAG	0.975 ± 0.045
AAATGTTTCA	0.996 ± 0.022
AAATGTTTGG	1.01 ± 0.017
AAATGTTTTC	0.979 ± 0.015
AAATTACGGG	1.045 ± 0.0046
AAATTATAGG	1.01 ± 0.032
AAATTATTT	1.02 ± 0.051
AAATTCATAG	1.019 ± 0.0033
AAATTCATGG	0.9809 ± 0.0021
AAATTCATGT	0.996 ± 0.028
AAATTCGAAT	1.02 ± 0.041
AAATTCGGGC	0.973 ± 0.014
AAATTCTGGG	0.996 ± 0.0075
AAATTGAGGA	1.017 ± 0.0096
AAATTGATAT	1.02 ± 0.025
AAATTGCGGC	0.975 ± 0.012
AAATTGGACG	1.08 ± 0.04
AAATTGGGAA	1.01 ± 0.035
